The results in this text go back to publication PMC10412584, “Molecular reshaping of phage-displayed Interleukin-2 at beta chain receptor interface to obtain potent super-agonists with improved developability profiles” (Communications Biology, 2023).

Where two headings read alike, the source gives them in different places.

In assay [1] the target is T1, 80FDPHDVVE87 + I92L + V93L(K35E)/Fc (human, UniProt P60568 21-153, K35E | L80F | R81D | R83H (from the name 80FDPHDVVE87) | L85V | I86V | S87E | …). Description: SPR.
For assay [2], the target named is T2, H9(K35E)/Fc (human, UniProt P60568 21-153, K35E | L80F | R81D | L85V | I86V | I92F). Description: SPR. In general terms: Surface plasmon resonance follows binding to a sensor surface in real time, without labels.
Assay [3] addresses T3, 80FDPADVVE87 + I92L(K35E)/Fc (human, UniProt P60568 21-153, K35E | L80F | R81D | R83 was replaced by either Ala or Glu (here Ala) | L85V | …). Description: SPR.
The target in assay [4] is T4, 80FDPEDVVE87 + I92L(K35E)/Fc (human, UniProt P60568 21-153, K35E | L80F | R81D | R83 was replaced by either Ala or Glu (here Glu) | L85V | …). The assay is described as follows: SPR.
The target of assay [5] is T5, IL-2(K35E)/Fc (human, UniProt P60568 21-153, K35E). Description: SPR.
The target in assay [6] is T6, 80VPPEDLIE87 + I92L(K35E)/Fc (human, UniProt P60568 21-153, K35E | L80V (from the name 80VPPEDLIE87) | R81P (from the name 80VPPEDLIE87) | …). Description: SPR.
In assay [7] the target is T7, 80VPPEDLIA87 + I92L(K35E)/Fc (human, UniProt P60568 21-153, K35E | L80V (from the name 80VPPEDLIA87) | R81P (from the name 80VPPEDLIA87) | …). The assay is described as follows: SPR.
Assay [8] concerns the target T8, fusion protein containing I92L-hIL-2 (K35E, human IgG1 Fc) (human, UniProt P60568 21-153, K35E | I92L). Description: SPR.
Assay [9] has as its target T2, H9(K35E)/Fc. The assay is described as follows: SPR. This is another data set of the same source.
Assay [10] deals with T9, H9(K35E)/Fc in which F92 was replaced by the phage-selected Leu (human, UniProt P60568 21-153, K35E | L80F | R81D | L85V | I86V | I92L). The assay is described as follows: SPR.
For assay [11], the target named is T5, IL-2(K35E)/Fc. Description: SPR. This is another data set of the same source.
In assay [12] the target is T10, H9(K35E)/Fc in which F92 was replaced by the original Ile (human, UniProt P60568 21-153, K35E | L80F | R81D | L85V | I86V). Description: SPR.
In assay [13] the target is T1, 80FDPHDVVE87 + I92L + V93L(K35E)/Fc. The assay is described as follows: SPR. This is another data set of the same source.
In assay [14] the target is T2, H9(K35E)/Fc. The assay is described as follows: SPR. The source holds these as a separate data set.
Assay [15] concerns the target T3, 80FDPADVVE87 + I92L(K35E)/Fc. The assay is described as follows: SPR. This is another data set of the same source.
The target in assay [16] is T4, 80FDPEDVVE87 + I92L(K35E)/Fc. Description: SPR. The source holds these as a separate data set.
Assay [17] has as its target T5, IL-2(K35E)/Fc. The assay is described as follows: SPR. This is another data set of the same source.
The target of assay [18] is T6, 80VPPEDLIE87 + I92L(K35E)/Fc. The assay is described as follows: SPR. The source holds these as a separate data set.
Assay [19] deals with T7, 80VPPEDLIA87 + I92L(K35E)/Fc. The assay is described as follows: SPR. The source holds these as a separate data set.
For assay [20], the target named is T8, fusion protein containing I92L-hIL-2 …. The assay is described as follows: SPR. The source holds these as a separate data set.
The target of assay [21] is T2, H9(K35E)/Fc. Description: SPR. The source holds these as a separate data set.
For assay [22], the target named is T9, H9(K35E)/Fc in which F92 was replaced …. Description: SPR. The source holds these as a separate data set.
In assay [23] the target is T5, IL-2(K35E)/Fc. The assay is described as follows: SPR. The source holds these as a separate data set.
The target of assay [24] is T10, H9(K35E)/Fc in which F92 was replaced …. The assay is described as follows: SPR. This is another data set of the same source.
Assay [25] addresses T11, human IL-2 receptor beta chain extracellular domain (ECD) (human, UniProt P14784 27-240).
T11 construct: human IL-2 receptor beta subunit (CD122), recombinant extracellular domain; Coated on immunotubes for panning and on plates for phage ELISA; also called hIL-2R beta subunit ECD; beta chain ECD; source: bought: R&D Systems
T11 sequence (looked up): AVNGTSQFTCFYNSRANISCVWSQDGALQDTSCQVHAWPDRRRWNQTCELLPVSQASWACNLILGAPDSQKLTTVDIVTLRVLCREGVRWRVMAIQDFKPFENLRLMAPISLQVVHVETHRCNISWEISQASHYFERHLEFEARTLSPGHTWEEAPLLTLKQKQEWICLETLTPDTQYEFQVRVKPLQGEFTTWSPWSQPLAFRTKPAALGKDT
Description: ELISA; polyvinyl chloride plates coated with human beta chain ECD; purified phage preparations of individual clones; bound phages detected with anti-M13-HRP; relative reactivity = signal on beta chain / signal on 9E10 (anti-c-myc). The settings on record: both partners purified. (In general: ELISA stands for enzyme-linked immunosorbent assay.)

B1: recombinant fusion protein comprising human IL-2R beta subunit extracellular domain and mouse IgG2a Fc (Fc fusion)
chain: AVNGTSQFTCFYNSRANISCVWSQDGALQDTSCQVHAWPDRRRWNQTCELLPVSQASWACNLILGAPDSQKLTTVDIVTLRVLCREGVRWRVMAIQDFKPFENLRLMAPISLQVVHVETHRCNISWEISQASHYFERHLEFEARTLSPGHTWEEAPLLTLKQKQEWICLETLTPDTQYEFQVRVKPLQGEFTTWSPWSQPLAFRTKPAALGKDT
In the case of B1, the koff worked out at 0.000266 s⁻¹ in assay [1]; 0.000395 s⁻¹ in [2]; 0.000461 s⁻¹ in assay [3]; 0.000273 s⁻¹ in assay [4]; 0.00326 s⁻¹ in [5]; 0.000304 s⁻¹ in [6]. For the same molecule, the koff in [7] came to 0.000349 s⁻¹; in assay [8] it was 0.00113 s⁻¹; in assay [9], 0.000218 s⁻¹; in assay [10], 0.000298 s⁻¹; in assay [11], 0.00308 s⁻¹; in [12], 0.000251 s⁻¹. The Kd in assay [13] amounted to 1.12 nM; in [14] it was 4.09 nM; in [15], 0.54 nM; in assay [16], 0.29 nM; in [17], 106 nM; in assay [18], 0.37 nM. For the same molecule, the Kd in assay [19] worked out at 0.8 nM; in assay [20], 36.5 nM; in assay [21] it was 4.47 nM; in [22] it was 3.35 nM; in assay [23], 103 nM; in assay [24], 3.84 nM.

B2: phage-displayed hIL-2 variant 2B (S2 library) (ligand, human, UniProt P60568 23-153, looked up)
chain: TSSSTKKTQLQLEHLLLDLQMILNGINNYKNPKLTRMLTFKFYMPKKATELKHLQCLEEELKPLEEVLNLAQSKNFHVPPEDLIANINVLVLELKGSETTFMCEYADETATIVEFLNRWITFCQSIISTLT
notes: No K35E on the phage
As for B2, the binding result in [25] is “binds”.

What is called koff is a measure of how fast the partners let go of each other. The term Kd denotes the equilibrium constant for the complex coming apart.
